Test system: MS2 coat protein
Test: apparent KD of MS2 coat protein; higher = weaker reporter binding
Conditions: Eterna round: R107
Procedure, shortened: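 On-chip transcription from Illumina sequencing clusters produced the designed RNA switches. These were titrated with SNAP-549-labelled MS2 coat protein (twofold steps, 0.7 or 1.5 nM to 3 µM) in 100 mM Tris-HCl pH 7.5, 80 mM KCl, 4 mM MgCl2, with or without constant ligand. The apparent KD given is the per-design median of normalised cluster binding-curve fits.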

[1] = input ligand: theophylline 20 uM
[2] = input ligand: theophylline 2 mM
[3] = input ligand: tryptophan 2.4 mM

| Sequence | apparent KD of MS2 coat protein (input ligand: arginine 13.2 mM) | apparent KD of MS2 coat protein (input ligand: none) | apparent KD of MS2 coat protein [1] | apparent KD of MS2 coat protein [2] | apparent KD of MS2 coat protein [3] |
| --- | --- | --- | --- | --- | --- |
| UCAUGCAGGUCGGCCGCCACUACACACAUGAGGAUCACCCAUGUAGUUACUGGGUGAAGUGGCAGUAGGACCGGGACCUGCAUAU [Brourdmod08] | 155 nM | 423 nM | 664 nM | 696 nM | 559 nM |
| AAUAAUAAGGCGGCCGCCACUAAACAUGAGGAUCACCCAUGUCUCGAGCGCAUGCAUAAGGGAUGUAGGACCGGGCCAAUAAUAA [Exclusion - Tryptophan B (Freestyle 2)] | 22 nM | 29.7 nM | 32.6 nM | 27.9 nM | 23.6 nM |
| GCUAGGUCUACGGCCGCCACUAGACAUGGGUAAGACAUGAGGAUCACCCAUGUACUACGAGUGCAUAGGACCGGGUAGACCUAGC [SSTB NP+V+V2 #19 +-Same Structure] | 111 nM |  | 277 nM | 516 nM |  |
| CAACAAGUAACUGAUACCAGUGUACUGACAUGAGGAUCACCCAUGUUGGGUUUUGUUGUACACCCUUGGCAGCAGAAUCUUGUUG [AstrosExyTheB#21] | 44.7 nM |  | 67.7 nM |  | 50 nM |
| CGUGCUAGGGCGGCCGCCACUGUGGCUACGGUACAUGAGGAUCACCCAUGUUUGUGGUUGAUCUACAGGACCGGGCCCUGGCACG [Radiaerdi] | 131 nM | 107 nM | 442 nM | 756 nM | 280 nM |
| GGGUCAGGCGCGGCCGCCACUGCGGUGAUGUGACAUGAGGAUCACCCAUGUUGUCAUGUGGCACAUAGGACCGGGUGCCUGGCCC [#1 Exclusion - Tryptophan B Attempt #6 (HarryS)] | 28.3 nM |  | 50.2 nM | 33.8 nM |  |
| ACAUGAGGAUCACCCAUGUACAUGAGGGAAGGAGCGGUACAUGUGCCAGGUAGGUCGCCCAACAGCAUCAGCCAUGUACAUCAGC [ppsmullin] | 38.1 nM | 113 nM | 117 nM | 83.5 nM | 49.7 nM |
| CGGUUUGUGAUGGAUACCAGCAGAGAGAAUGUUUAUCCUGACAUGAGGAUCACCCAUGUGUGCCCUUGGCAGCUGUUGUGGGCUG [8.Y] | 42.4 nM |  | 102 nM |  | 55.8 nM |
| GCCGGUACGUCGGCAAAGCCGAUGUGCCAGCGAGGACCGGUACGGCCGCCACUCGUACAUGAGGAUCACCCAUGUCCGGUCCGGC [Omei Trp SS A C v1] | 26.7 nM |  | 62.5 nM | 71.8 nM |  |
| UGUAUGGACUGAAGGAGCGGGUUGAUACCAUGAGGAUCACCCAUGGAAAAGGCGAAAGCCGCCCAGGUAGGUCGCAGUCCAUACU | 14 nM | 12.9 nM | 19.7 nM | 18.4 nM | 16.6 nM |
| UGACAUUGCUCAGAUACCAGACAUGAGGAUCACCCAUGUACCAAGGUACCCGAAAGGAAUGUCCCUUGGCAGCUGAGCAAUGUCU [TheoBX 3 #MS2Left #Theo2 #StaticStem] | 11.7 nM |  | 11.9 nM |  | 11 nM |
| UACUUGCUGACGGCCGCCACUAGAACAUGAGGAUCACCCAUGUAUUCUAGUCGUCAUGGGUGGACUAGGACCGGGUCAGCAAGAU [(Trp1)-(Ms2)-(T)'-(M)'-(Trp2)_Design8] | 30.7 nM | 33.8 nM | 41.8 nM | 34.7 nM | 192 nM |
| AUUAAUAGUUGUGAUACCAGACGAACAUGAGGAUCACCCAUGUAACUUUUAGGUGUUGUAGUCCCUUGGCAGCACUAUGUAGUUA [JR_SSTheophyB_Sub013] | 31.1 nM |  | 44.5 nM |  | 32.6 nM |
| GCAUCCUAGUCGGCCGCCACUGCGGAUCCGGUUCUAGAUCCUUAACAUGAGGAUCACCCAUGUAGCAGGACCGGGACUAGGAUGC [(Trp1)-(TM)''-(TM)'-(Ms2)-(Trp2)_Design2] | 91 nM | 237 nM | 251 nM | 324 nM | 295 nM |
| GGACUAACCAGAAGGAGCGGCGCGCAGAAACUGCAAAAUCCUCCGCACGAGGAUCACCCGUGUCAGGUAGGUCGCUGGUUAGUCG [ArgBX 28] | 18 nM | 17.7 nM | 16.2 nM | 20.8 nM | 17.3 nM |
| AGAUUCGACACGGCCGCCACUCGUGACAGAUUUCGCAGUGGUCAACAUGAGGAUCACCCAUGUCUGAGGACCGGGUGUUGAGUCU [XTryp B #9] | 36.4 nM |  | 39.3 nM | 41.1 nM |  |
| CUCCCGUGAGCGGCCGCCACUGGAGGCCUCGCGCGACAUGAGGAUCACCCAUGUUGGCCCGGCCUCAGGACCGGGUUCGCGCGAG [Same State - Tryptophan B Attempt #5 (HarryS)] | 7.94 nM | 9.67 nM | 12.4 nM | 9.89 nM | 7.41 nM |
| UCGCUCUGGGUGGGAUCCGGAGAUGUGGAAGGAGCGCUGGAAACAGCAGGUAGGUCGCCAACGGACAUGAGGAUCACCCAUGUAC [Same State - Arginine A (Freestyle 18)] | 64.9 nM | 26.5 nM | 37.4 nM | 37.7 nM | 59 nM |
| ACGGAGAUUGCUAAAUGUUGGCGAGCGGAUACCAGCCUAUAAUCGGGCCCUUGGCAGCCGACAUGAGGAUCACCCAUGUAAACAA [Gelelaor] | 12.3 nM | 121 nM | 98.9 nM | 87.3 nM | 58.6 nM |

| Sequence | apparent KD of MS2 coat protein (input ligand: arginine 13.2 mM) | apparent KD of MS2 coat protein (input ligand: none) | apparent KD of MS2 coat protein [1] | apparent KD of MS2 coat protein [2] | apparent KD of MS2 coat protein [3] |
| --- | --- | --- | --- | --- | --- |
| AGCGAUAUGCAUGAUACCAGCUACAUGAGGAUCACCCAUGUGCGUCAGUAAUGACUGUGUAGCCCUUGGCAGCAUAGAGCAUGUA [Exclusion - Theophylline B (Freestyle 12)] | 29.5 nM |  | 47.2 nM |  | 34.7 nM |
| GGCAGUCAUAGCAGGGCAAAUAUACUCGAAGGAGCGUCAUAGUAGGCAGGUAGGUCGCGAGACAUGAGGAUCACCCAUGUAGAGA [uuumullin] | 26.1 nM | 68.9 nM | 46 nM | 66 nM | 49.3 nM |
| UUAUUUAUAGGGUAUAUCAGAUUAACUGAAGGAGCGUGGUAAUUCACAGGUAGGUCGCAGAUGGAACAUGAGGAUCACCCAUGUU [JR_ExcArginiA_Sub015] | 18.2 nM | 19.2 nM | 28.5 nM | 22.2 nM | 20.8 nM |
| AAUAAUAGGUGAUCCUAACGAGUGGCAUAACGAGGACCGGUACGGCCGCCACUCGAACAUGAGGAUCACCCAUGUAGUCACUCGA [M'-T'-T-MS2-T'' - Design 5] | 82.9 nM |  | 280 nM | 751 nM |  |
| UGACAUGAGGAUCACCCAUGUGUAAGAGAAGGAGCGGCCGGAAGGCCAGGUAGGUCGCUCAGGUAGCGUGAGGAUCACCCGUGUG [big_hook] | 81.8 nM | 161 nM | 130 nM | 97.5 nM | 35.7 nM |
| ACACAUGAGGAUCACCCAUGUCCAAUAGAUACCAGUGAUACAGUGCACCCUUGGCAGCUGUUACUGAGUAAUGGUUCCCUCGGAA [Same State Theophylline A GF2] | 26.8 nM |  | 48.6 nM |  | 37.5 nM |
| UCGGUUUUCUACAUGAGGAUCACCCAUGUCCGAGGACCGGUACGGCCGCCACUCGCAAUCAAACAGACGUGGGCCAAAUUUGCGU [Isinso] | 11.8 nM |  | 14.8 nM | 11.6 nM |  |
| AGUCUUAAAGGAAGGAGCGCAGUCAUAACAUGAGGAUCACCCAUGUCGAGGUGAGGGUCAUUGCAGGUAGGUCGCCUUACUAAGA [Same State - Arginine B (Freestyle 6)] | 77.7 nM | 114 nM | 118 nM | 132 nM | 96.1 nM |
| GCGCUAUUUAUUGAUACCAGAUACAGGAAUCACAUGAGGAUCACCCAUGUGGAAUGAAGGAUCCCUUGGCAGCAAUAGUCAAAAU [theeternabot_sameState_MS2_Theo_B_9] | 16.6 nM |  | 19.6 nM |  | 19.9 nM |
| AUAGUCUAGAGUGAUACCAGACAACAUGAGGAUCACCCAUGUAGCAUAUGGUUAUCAUGAGUCCCUUGGCAGCACGCAUGUAUAG [JR_ExcTheophyB_Sub012] | 13.4 nM |  | 19.9 nM |  | 13.2 nM |
| AGUCUUAAUGGAAGGAGCGCAGUCAUAACAUGAGGAUCACCCAUGUCGAGGUGAGGGUCAUUGCAGGUAGGUCGCCAUACUAGAA [Same State - Arginine B (Freestyle 1)] | 131 nM | 153 nM | 222 nM | 186 nM | 125 nM |
| ACAUGAGGAUCACCCAUGUAUUACCGGGAAGGAGCGCGUAAGGACGCAGGUAGGUCGCUCGGCGUCGUGCUGUAAAGCACGACGA [#1 Same State - Arginine A Attempt #24 (HarryS)] | 67.7 nM | 14.9 nM | 18.6 nM | 14.9 nM | 15.3 nM |
| AAGCAGGGUGUAAAAUAAAUAAUCACUGAUACCAGACUAUGAGAUGUCCCUUGGCAGCAGAAACAUGAGGAUCACCCAUGUAAUA [JR_Nu_ExcTheophyA_Sub029] | 21.1 nM |  | 28.4 nM |  | 27.3 nM |
| GAUGAUAUUGCAGAUACCAGACACAUGAGGAUCACCCAUGUCGCUGGGUCGCUGGGUCGUGUCCCUUGGCAGCUGCGAUAUCAUC [Tibet] | 16.3 nM | 20.3 nM | 47.8 nM | 339 nM | 21.4 nM |
| AACAAUGCACAUGAGGAUCACCCAUGUGAUACCAGCCGCAACAUAGGCCCUUGGCAGCAUGUGGGUAUAGAACGAUUUGGCUGAA [Xeanle] | 24.4 nM |  | 85.3 nM |  | 41.7 nM |
| UGAUGGAACGGAAGGAGCGUGUAAGAACAAGAACAUGAGGAUCACCCAUGUAUUAAUUUAACACAGGUAGGUCGCCGAGUUAUUG [11.F] | 9.42 nM | 16.9 nM | 42.1 nM | 28.6 nM | 15.9 nM |
| UAUAUGGUGAUGGAUACCAGCAGAGAAAACGUUUAUCCUAACAUGAGGAUCACCCAUGUAUGCCCUUGGCAGCUGUUGUUAUAUA [8.M] | 26.7 nM |  | 42.3 nM |  | 35.2 nM |
| UAUAGUGUGAUGGAUACCAGCAGAGAAAACGUUUAUCCUAACAUGAGGAUCACCCAUGUAUGCCCUUGGCAGCUGUUGUGUUAUA [8.O] | 28.9 nM |  | 42.5 nM |  | 30.3 nM |
| UUAUAUAUACAUGAGGAUCACCCAUGUGAUACCAGCCUGGAAACAGGCCCUUGGCAGCACAAAUACUCCAGAAAAUAUAAUAAAU [MAT - Exclusion Theophlline A - Mod of Eli - D4] | 26.1 nM |  | 56.8 nM |  | 27.8 nM |

From the supplement of paper PMC9170038
